For the data set, the target named is DNA polymerase beta I260Q (rat, UniProt P06766 1-335, I260Q). Description: X-ray crystallography.

B1: cocrystallization primer/template (dsDNA)
DNA 1: ATGTGAG
DNA 2: CAAACTCACAT
In the case of B1, the binding result was “binds”.

Source of the values: PMC3733117.
